The experiment deals with human serum albumin (human) (UniProt P02768). As to the kind of experiment: primary solution ELISA screen. (In general: In an ELISA, binding on a coated surface is turned into a signal by an enzyme label.)
human serum albumin (human), sequence (P02768 25-609 limits assumed): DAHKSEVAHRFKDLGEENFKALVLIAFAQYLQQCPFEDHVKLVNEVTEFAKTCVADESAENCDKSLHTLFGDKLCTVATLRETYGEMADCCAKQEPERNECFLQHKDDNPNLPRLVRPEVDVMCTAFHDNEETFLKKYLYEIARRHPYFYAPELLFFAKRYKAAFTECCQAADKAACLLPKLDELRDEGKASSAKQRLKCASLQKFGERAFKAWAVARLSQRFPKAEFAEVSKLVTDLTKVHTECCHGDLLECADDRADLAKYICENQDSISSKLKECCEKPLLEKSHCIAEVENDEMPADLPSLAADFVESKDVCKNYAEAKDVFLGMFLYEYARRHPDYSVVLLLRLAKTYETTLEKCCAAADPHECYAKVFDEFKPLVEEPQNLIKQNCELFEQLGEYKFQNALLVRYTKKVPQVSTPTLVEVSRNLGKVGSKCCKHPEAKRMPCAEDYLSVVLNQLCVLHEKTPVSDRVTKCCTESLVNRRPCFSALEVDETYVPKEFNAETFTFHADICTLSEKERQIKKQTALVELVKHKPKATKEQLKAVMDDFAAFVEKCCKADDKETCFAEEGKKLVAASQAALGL

B1: SEQ ID NO 39 (designed binder, not shown: small tags and cut ends)
chain: MLPAPKNLVVSRVTEDSARLSWTAPDAAFDSFPIPYTEPPDPGEAIVLTVPGSERSYDLTGLKPGTEYLVTILGVKGGSMSVPLSAIFTT
Take B1: the RLU is 51100 RLU.

B2: SEQ ID NO 63 (designed binder, not shown: small tags and cut ends)
chain: MLPAPKNLVVSRVTEDSARLSWTAPDAAFDSFCISYYERMGRGEAIVLTVPGSERSYDLTGLKPGTEYMVYIFGVKGGLNSLPLSAIFTT
In the case of B2, the RLU was 5700 RLU.

B3: SEQ ID NO 78 (designed binder, not shown: small tags and cut ends)
chain: MLPAPKNLVVSRVTEDSARLSWTAPDAAFDSFGIGYYEHKRFGEAIQLSVPGSERSYDLTGLKPGTEYEVDIEGVKGGVLSWPLFAEFTT
B3 showed an RLU of 9350 RLU.

B4: SEQ ID NO 43 (designed binder, not shown: small tags and cut ends)
chain: MLPAPKNLVVSRVTEDSARLSWTAPDAAFDSFMIVYYEYTRFGEAIVLTVPGSERSYDLTGLKPGTEYTVPIDGVKGGGRSSPLSAIFTT
In turn, B4 had an RLU of 21500 RLU.

B5: SEQ ID NO 47 (designed binder, not shown: small tags and cut ends)
chain: MLPAPKNLVVSRVTEDSARLSWTAPDAAFDSFGIVYLEMMVTGEAIVLTVPGSERSYDLTGLKPGTEYDVPILGVKGGTRSVPLSAIFTT
In turn, B5 came in with an RLU of 20400 RLU.

B6: SEQ ID NO 67 (designed binder, not shown: small tags and cut ends)
chain: MLPAPKNLVVSRVTEDSARLSWTAPDAAFDSFTILYAEQAQFGEAIVLTVPGSERSYDLTGLKPGTEYPITGVKGGTRSGPLSAISTT
As to B6, the RLU was found to be 14200 RLU.

B7: SEQ ID NO 4 (designed binder, not shown: small tags and cut ends)
chain: MLPAPKNLVVSEVTEDSARLSWQGVARAFDSFLITYRDQIFAGEVIVLTVPGSERSYDLTGLKPGTEYPVWIQGVKGGSPSAPLSAESTT
For B7, the RLU worked out at 174000 RLU.

B8: SEQ ID NO 73 (designed binder, not shown: small tags and cut ends)
chain: MLPAPKNLVVSEVTEDSARLSWQGVARAFDSFLITYREQIFAGEVIVLTVPGSERSYDLTGLKPGTEYPVWIQGVKGGSPSAPLSAESTT
B8 returned an RLU of 20200 RLU.

B9: SEQ ID NO 53 (designed binder, not shown: small tags and cut ends)
chain: MLPAPENLVVSEVTEDSARLSWQGVARAFDSFLITYREQIFAGEVIVLTVPGSERSYDLTGLKPGTEYPVWIQGVKGGSPSAPLSAESTT
On to B9, for which the RLU amounted to 32000 RLU.

B10: SEQ ID NO 41 (designed binder, not shown: small tags and cut ends)
chain: MLPAPKNLVVSRVTEDSARLSWQGVARAFDSFLITYREQIFAGEVIVLTVPGSERSYDLTGLKPGTEYPVWIQGVKGGHLSDPLSAIVTT
The molecule B10 had an RLU of 115000 RLU.

B11: SEQ ID NO 5 (designed binder, not shown: small tags and cut ends)
chain: MLPAPKNLVVSEVTEDSARLSWQGVARAFDSFLITYREQIFAGEVIVLTVPGSERSYDLTGLKPGTEYWVYIWGVKGGKPSFPLRAGFTT
B11: the RLU was determined as 45000 RLU.

B12: SEQ ID NO 70 (designed binder, not shown: small tags and cut ends)
chain: MLPAPKNLVVSRVTEDSARLSWQGVARAFDSFLITYREQIFAGEVIVLTVPGSERSYDLTGLKPGTEYPVWIQGVKGGDLSNPLSAIFTT
For B12, the RLU was found to be 94800 RLU.

B13: SEQ ID NO 7 (designed binder, not shown: small tags and cut ends)
chain: MLPAPKNLVVSDVTEDSARLSWQGVARAFDSFLITYREQIFAGEVIVLTVPGSERSYDLTGLKPGTEYPVWIQGVKGGSPSAPLSAEFTT
For B13, the RLU was 26100 RLU.

B14: SEQ ID NO 72 (designed binder, not shown: small tags and cut ends)
chain: MLPAPKNLVVSRVTEDSARLSWTAPDAAFDSFTIGYREWYWYGEAIVLTVPGSERSYDLTGLKPGTEYNVPISGVKGGLDSFPLSAIFTT
Take B14: the RLU turned out to be 8950 RLU.

B15: SEQ ID NO 38 (designed binder, not shown: small tags and cut ends)
chain: MLPAPKNLVVSRVTEDSARLSWTAPDAAFDSFPILYLEHTVRSEAIVLTVPGSERSYDLTDLKPGTEYCVPIDGVKGGLRSRPLSAIFTT
B15 yielded an RLU of 8150 RLU.

B16: SEQ ID NO 56 (designed binder, not shown: small tags and cut ends)
chain: MLPAPKNLVVSRVTEDSARLSWTAPDAAFDSFSIGYVELVLLGEAIVLTVPGSERSYDLTGLKPGTEYDVLIPGVKGGSLSRPLSAIFTT
Consider B16, for which the RLU is 19400 RLU.

B17: SEQ ID NO 71 (designed binder, not shown: small tags and cut ends)
chain: MLPAPKNLVVSRVTEDSARLSWTAPDAAFDSFPISYLELSLYGEAIVLTVPGSERSYDLTGLKPGTEYPVGIAGVKGGVVSRPLSAIFTT
B17 registered an RLU of 27500 RLU.

B18: SEQ ID NO 74 (designed binder, not shown: small tags and cut ends)
chain: MLPAPKNLVVSRVTEDSARLSWTAPDAAFDSFSITYLEWWNLGEAIVLTVPGSERSYDLTGLKPGTEYMVTIPGVKGGMSSYPLSAIFTT
Take B18: the RLU is 14600 RLU.

B19: SEQ ID NO 54 (designed binder, not shown: small tags and cut ends)
chain: MLPAPKNLVVSRVTEDSARLSWTAPDAAFDSFAIAYGEHIVIGEAIVLTVPGSERSYDLTGLKPGTEYMVPIAGVKGGPISLPLSAIFTT
In the case of B19, the RLU was 11700 RLU.

B20: SEQ ID NO 76 (designed binder, not shown: small tags and cut ends)
chain: MLPAPKNLVVSRVTEDSARLSWTAPDAAFDSFTIEYYENIGIGEAIVLTVPGSERSYDLTGLKPGTEYSVPIVGVKGGPYSHPLSAIFTT
The molecule B20 showed an RLU of 16300 RLU.

B21: SEQ ID NO 48 (designed binder, not shown: small tags and cut ends)
chain: MLPAPKNLVVSRVTEDSARLSWTAPDAAFDSFLIYYEEGYLEYYYSGEAIVLTVPGSERSYDLTGLKPGTEYYVGIVGVKGGGLSGPLSAISTT
In turn, B21 registered an RLU of 115000 RLU.

B22: SEQ ID NO 75 (designed binder, not shown: small tags and cut ends)
chain: MLPAPKNLVVSRVTEDSARLSWTAPDAAFDSFTISYGEEALIGEAIYLRVPGSERSYDLTGLKPGTEYYVHIEGVKGGSWSQPLAAAFTT
B22 gave an RLU of 3700 RLU.

B23: SEQ ID NO 1 (designed binder, not shown: small tags and cut ends)
chain: MLPAPKNLVVSRVTEDSARLSWTAPDAAFDSFPITYIEAVVLGEAIVLTVPGSERSYDLTGLKPGTEYPVGISGVKGGHNSMPLSAIFTT
The molecule B23 came in with an RLU of 15800 RLU.

B24: SEQ ID NO 61 (designed binder, not shown: small tags and cut ends)
chain: MLPAPKNLVVSRVTEDSARLSWTAPDAAFDSFQIVYSELWIKGEAIVLTVPGSERSYDLTGLKPGTEYQVPIPGVKGGRNSFPLSAIFTT
Turning to B24, the RLU is 13600 RLU.

B25: SEQ ID NO 37 (designed binder, not shown: small tags and cut ends)
chain: MLPAPKNLVVSRVTEDSARLSWTTPDAAFDSFPIYYWEVTITGEAIYLSVPGSERSYDLTGLKPGTEYPVDIPGVKGGAASPPLSAIFTT
In turn, B25 registered an RLU of 28600 RLU.

B26: SEQ ID NO 50 (designed binder, not shown: small tags and cut ends)
chain: MSLPAPKNLVVSRVTEDSARLSWTAPDAAFDSFTIHYREFQLSGEAIVLTVPGSERSYDLTGLKPGTEYDVPIEGVKGGPGSRPLSAIFTT
The molecule B26 showed an RLU of 16000 RLU.

B27: SEQ ID NO 59 (designed binder, not shown: small tags and cut ends)
chain: MLPAPKNLVVSRVTEDSARLSWTAPDAAFDSFVYNEVHWIGEAIVLTVPGSERSYDLTGLKPGTEYFVGIYGVKGGHWSKPLSAIFTT
With B27, the RLU turned out to be 16400 RLU.

B28: SEQ ID NO 40 (designed binder, not shown: small tags and cut ends)
chain: MLPAPKNLVVSRVTEDSARLSWTAPDAAFDSFTIDYWENRCPGEAIVLTVPGSERSYDLTGLKPGTEYCVWISGVKGGYSSWPLSAIFTT
B28 registered an RLU of 13600 RLU.

B29: SEQ ID NO 66 (designed binder, not shown: small tags and cut ends)
chain: MLPAPKNLVVSRVTEDSARLSWTAPDAAFDSFTIDYDEPRSPGEAIVLTVPGSERSYDLTGLKPGTEYRVFIWGIKGGDTSFPLSAIFTT
B29 yielded an RLU of 8100 RLU.

B30: SEQ ID NO 62 (designed binder, not shown: small tags and cut ends)
chain: MLPAPKNLVVSRVTEDSARLSWTAPDAAFDSFKIRYTETRSIGEAIVLTVPGSERSYDLTGLKPGTEYCVPIGGVKGGDSSWPLSAISTT
B30: the RLU came out at 8100 RLU.

B31: SEQ ID NO 42 (designed binder, not shown: small tags and cut ends)
chain: MLPAPKNLVVSRVTEDSARLSWTAPDAAFDSFLIPYAETSPSGEAIVLTVPGSERSYDLTGLKPGTEYSVLIHGVKGGDYSEPLSAIFTT
As to B31, the RLU was 1000 RLU.

B32: SEQ ID NO 68 (designed binder, not shown: small tags and cut ends)
chain: MLPAPKNLVVSRVTEDSARLSWTAPDAAFDSFIIPYAEVRPDGEAIVLTVPGSERSYDLTGLKPGTEYSVLIHGVKGGHLSDPLSAISTT
As for B32, the RLU came to 38400 RLU.

B33: SEQ ID NO 64 (designed binder, not shown: small tags and cut ends)
chain: MLPAPKNLVVSRVTEDSARLSWTAPDAAFDSFYIVYAEPIPNGEAIVLTVPGSERSYDLTGLKPGTEYSVLIHGVKGGRNSDPLSAIFTT
Molecule B33 returned an RLU of 6000 RLU.

B34: SEQ ID NO 46 (designed binder, not shown: small tags and cut ends)
chain: MLPAPKNLVVSRVTEDSARLSWTAPDAAFDSFIIPYAEVRPDGEAIVLTVPGSERSYDLTGLKPGTEYSVLIHGVKGGKLSLPLSAIFTT
For B34, the RLU amounted to 8150 RLU.

B35: SEQ ID NO 44 (designed binder, not shown: small tags and cut ends)
chain: MLPAPKNLVVSRVTEDSARLSWTAPDAAFDSFFIPYAEPSPTGEAIVLTVPGSERSYDLTGLKPGTEYSVLIHGVKGGHLSDPLSAIVTT
Regarding B35, the RLU is 56600 RLU.

B36: SEQ ID NO 57 (designed binder, not shown: small tags and cut ends)
chain: MLPAPKNLVVSRVTEDSARLSWTAPDAAFDSFAIPYAELSRNGEAIVLTVPGSERSYDLTGLKPGTEYTVLIHGVKGGCLSDPLSAIFTT
B36 showed an RLU of 38800 RLU.

B37: SEQ ID NO 65 (designed binder, not shown: small tags and cut ends)
chain: MLPAPKNLVVSRVTKDSARLSWTAPDAAFDSFPIAYAEPRPDGEAIVLTVPGSERSYDLTGLKPGTEYSVLIHGVKGGLLSSPLSAIFTT
B37 displayed an RLU of 16000 RLU.

B38: SEQ ID NO 77 (designed binder, not shown: small tags and cut ends)
chain: MLPAPKNLVVSRVTEDSARLSWTAPDAAFDSFPIAYAEPRPDGEAIVLTVPGSERSYDLTGLKPGTEYSVLIHGVKGGLLSSPLSAIFTT
B38 yielded an RLU of 10400 RLU.

B39: SEQ ID NO 6 (designed binder, not shown: small tags and cut ends)
chain: MLPAPKNLVVSRVTEDSARLSWTAPDAAFDSFPIIYMETFSRGEAIVLTVPGSERSYDLTGLKPGTEYRVPIGGVKGGSSSCPLSAIFTT
Molecule B39 displayed an RLU of 7300 RLU.

For the origin of these results see patent publication US20220332795A1.
